From patent publication US20130302346A1 (LEXICON PHARMACEUTICALS, published 2013)

T1: H(Q47)
T1 construct: Drawn on the sheet as a signal peptide (SP) followed by human NOTUM starting at Q47; CD33 signal peptide'; also called Human NOTUM (delta 1-46) with CD33 signal peptide
T1 single chain: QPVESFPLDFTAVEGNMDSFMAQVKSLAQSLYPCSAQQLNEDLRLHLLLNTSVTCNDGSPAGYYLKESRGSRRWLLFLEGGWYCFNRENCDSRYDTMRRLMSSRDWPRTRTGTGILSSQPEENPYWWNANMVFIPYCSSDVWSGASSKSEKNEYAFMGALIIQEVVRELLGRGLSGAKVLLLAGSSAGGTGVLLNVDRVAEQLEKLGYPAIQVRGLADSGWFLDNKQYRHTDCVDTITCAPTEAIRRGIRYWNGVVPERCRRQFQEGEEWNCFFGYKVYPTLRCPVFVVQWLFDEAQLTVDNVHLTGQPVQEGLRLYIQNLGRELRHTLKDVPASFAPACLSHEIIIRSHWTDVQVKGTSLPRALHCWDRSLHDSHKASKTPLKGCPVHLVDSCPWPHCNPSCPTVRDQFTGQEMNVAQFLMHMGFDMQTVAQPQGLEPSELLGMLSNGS

T2: H-M-H
T2 construct: Drawn on the sheet as human up to the M177 line, a mouse middle segment, then a human C-terminal part; Conditioned medium from transfected HEK293F; also called Human-mouse-human chimeric NOTUM
T2 single chain: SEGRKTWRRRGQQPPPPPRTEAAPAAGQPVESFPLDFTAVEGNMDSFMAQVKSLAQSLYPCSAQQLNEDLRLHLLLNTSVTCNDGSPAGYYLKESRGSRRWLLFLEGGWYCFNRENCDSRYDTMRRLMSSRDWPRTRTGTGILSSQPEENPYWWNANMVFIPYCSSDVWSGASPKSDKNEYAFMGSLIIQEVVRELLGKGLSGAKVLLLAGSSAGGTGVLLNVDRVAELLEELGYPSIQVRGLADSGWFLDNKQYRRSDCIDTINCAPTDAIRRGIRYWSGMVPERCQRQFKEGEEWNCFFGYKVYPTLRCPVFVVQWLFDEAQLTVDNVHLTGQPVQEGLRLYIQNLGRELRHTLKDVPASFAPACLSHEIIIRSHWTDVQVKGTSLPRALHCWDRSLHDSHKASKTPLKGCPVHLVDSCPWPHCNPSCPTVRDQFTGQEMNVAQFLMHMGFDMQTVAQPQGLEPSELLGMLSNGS

T3: H(N96D)
T3 construct: Human NOTUM with N96D, marked inside the Q47-M177 box on the sheet; also called Human NOTUM N96D
T3 single chain: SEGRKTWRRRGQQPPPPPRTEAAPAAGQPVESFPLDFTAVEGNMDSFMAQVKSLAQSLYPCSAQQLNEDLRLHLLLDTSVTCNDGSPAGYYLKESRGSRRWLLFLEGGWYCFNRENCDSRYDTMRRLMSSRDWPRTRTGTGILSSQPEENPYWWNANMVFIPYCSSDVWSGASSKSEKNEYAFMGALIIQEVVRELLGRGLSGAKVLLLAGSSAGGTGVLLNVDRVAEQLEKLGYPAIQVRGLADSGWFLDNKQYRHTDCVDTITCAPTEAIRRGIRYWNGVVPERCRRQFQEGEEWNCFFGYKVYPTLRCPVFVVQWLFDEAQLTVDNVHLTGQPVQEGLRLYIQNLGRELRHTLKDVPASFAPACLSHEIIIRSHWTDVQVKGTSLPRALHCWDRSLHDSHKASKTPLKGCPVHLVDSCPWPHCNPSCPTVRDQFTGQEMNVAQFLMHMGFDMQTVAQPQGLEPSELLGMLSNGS

T4: H(S232A)
T4 construct: The catalytic triad serine is drawn as A on the sheet; also called Human NOTUM S232A
T4 single chain: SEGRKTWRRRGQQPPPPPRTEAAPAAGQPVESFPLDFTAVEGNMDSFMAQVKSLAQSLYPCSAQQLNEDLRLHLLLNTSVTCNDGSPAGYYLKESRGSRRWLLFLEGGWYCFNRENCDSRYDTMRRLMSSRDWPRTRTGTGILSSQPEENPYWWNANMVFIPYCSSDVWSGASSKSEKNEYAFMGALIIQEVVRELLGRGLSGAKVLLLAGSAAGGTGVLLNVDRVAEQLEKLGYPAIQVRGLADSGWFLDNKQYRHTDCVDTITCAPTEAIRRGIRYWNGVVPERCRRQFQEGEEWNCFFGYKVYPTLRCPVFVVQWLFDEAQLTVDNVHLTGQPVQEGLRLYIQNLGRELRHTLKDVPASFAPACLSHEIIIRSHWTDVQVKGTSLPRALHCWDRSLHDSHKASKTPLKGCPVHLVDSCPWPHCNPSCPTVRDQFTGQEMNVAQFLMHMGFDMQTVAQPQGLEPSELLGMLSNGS


Key:
Assay in all cases: ELISA on conditioned medium of HEK293F transfected with the NOTUM construct (Example 6.7)
H(Q47) = target: T1, H(Q47)
Excerpt: (§1) The sequences of those proteins are shown in Section 7 (Table of Sequences). The conditioned media were used in ELISA format to determine antibody specificity. […] Within this region, mouse and human NOTUM differ at five positions (R115K, D141S. R150K, R154H, and Y171H, based on the human sequence numbering). Human NOTUM point mutants were generated by transient transfection of constructs expressing human NOTUM with the mouse amino acid at each of these five positions and the point mutants were all shown to be functional in the OPTS assay.

H-M-H = target: T2, H-M-H
Excerpt: as §1

H(N96D) = target: T3, H(N96D)
Excerpt: as §1

H(S232A) = target: T4, H(S232A)
Excerpt: as §1

Row | binding result (H(Q47)) | binding result (H-M-H) | binding result (H(N96D)) | binding result (H(S232A)) | Binder
1 | binds | binds | binds | binds | MAb 1.802 (antibody, V domains shown, Mouse monoclonal antibody from Campaign 1 (raised against human NOTUM), IgG1) VH: EVQLVESGGGLVKPGGSLKLSCAASGFTFSDYGMHWFRQAPEKGLEWVAYISSGSRTVYYADTVKGRFTISRDNAKNTLSLQMTSLRSEDTAMYYCARKHYNGGYFDVWGTGTTVTVSS VL: DIVLTQSPASLAVSLGQRATISCRASKIVSTSGYSYMHWYQQKPGQPPKLLIYLASNLESGVPARFSGSGSGTDFTLNIHPVEEEDAATYYCQHSRELPPTFGSGTKLEIKR
2 | binds | binds | binds | binds | MAb 1.846 (antibody, IgG2b, V domains shown, Mouse monoclonal antibody from Campaign 1, IgG2b) VH: EVQLVESGGDLVKPGGSLKLSCAASGFTFSDYGMHWLRQAPEKGLEWVAYISSGSTTLSYANTMKGRFTISRDNAKKTLSLQMTSLRSEDTAIYYCARKNYNGGYFDVWGTGTTVTVSS VL: DIVLTQSPASLVVSLGQRATISCRASKSVSESGYSYMHWYQQKPGQPPKLLIYLASNLESGVPARFSGSGSGTDFTLNIHPVEEGDATTYYCQHSRVLPPTFGSGTKLEIKR
3 | binds | binds | binds | binds | MAb 1.815 (antibody, IgG1, V domains shown, Mouse monoclonal antibody from Campaign 1, IgG1) VH: DVQLLESGGGLVQPGGSRKLSCAASGFTFSDFGMHWVRQAPEKGLEWVAYSSSGGTTVYYADTVKGRLTLSRDNSKNTLFLEMTSLRSEDTAMYYCARASYDGGYFDCWGQGTSLTVSS VL: DIVLTQSPASLAVSLGQRATISCRASKSVSTSGYSYIHWYQQKPGQPPKLLIYLASDLESGVPARFSGSGSGAAFTLNIHPVEEEDAATYYCHHSRELPFTFGSGTKLEIKR
